Test results as given in the supplement of paper PMC10126150.
± gives the standard deviation of the averaged measurements.

System: ATP
Assay: switch fluorescence ratio, 500 uM ATP over buffer (Cy3 cluster intensity, sum of 5 cycles each) (fold (ratio)); higher = stronger signal-on switching upon ATP binding; sequences stand for … in TCGTCGGCAGCGTCAGATGTGTATAAGAGACAGTTTTTTTTTTTTTTTTTTTTTTTTT…TC
Conditions: aptamer strand: ATP DNA aptamer (quencher-CACCTGGGGGAGTATTGCGGAGGAAGG + anchor), 100 nM annealed; ATP concentration: 500 uM
Method in brief: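 Imaging in selection buffer was followed by imaging after 15 min with 500 uM ATP at 22 °C, for Cy3-labelled switching-strand clusters annealed to 100 nM quencher-labelled ATP aptamer on a modified Illumina MiSeq flow-cell. Five of these buffer/ATP cycles ran, separated by NaOH stripping and re-annealing. The fluorescence ratio per cluster is summed target-cycle over summed buffer-cycle Cy3 intensity, averaged per switch-domain sequence; clusters outside 100-1000 RFU were removed.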
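Further: ATP exposure 15 min at 22 °C before imaging.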

Sequence | switch fluorescence ratio
AATCGCTTGG | 0.9965 ± 0.006
AATCGCTTTG | 1.014 ± 0.0029
AATCGGCGTC | 1.08 ± 0.15
AATCGGCTCA | 0.98074 ± 0.00017
AATCGGGCCA | 0.987 ± 0.018
AATCGGGGAT | 1 ± 0.012
AATCGGGGGG | 0.974 ± 0.013
AATCGGGGTC | 1.01 ± 0.015
AATCGGGTAG | 1 ± 0.014
AATCGGGTCA | 0.985 ± 0.021
AATCGGTACT | 1.01 ± 0.038
AATCGGTAGG | 1.01 ± 0.027
AATCGTACGT | 0.959 ± 0.04
AATCGTAGTG | 0.9895 ± 0.0071
AATCGTATTC | 0.972 ± 0.011
AATCGTGTAG | 1.04 ± 0.025
AATCGTTTTT | 1.02 ± 0.12
AATCTCATAA | 0.986 ± 0.034
AATCTCTGGG | 0.992 ± 0.0015
AATCTGGCTG | 0.991 ± 0.023
AATCTGGGGT | 1 ± 0.028
AATCTTTGGA | 1 ± 0.013

Sequence | switch fluorescence ratio
AATGAAAAAT | 0.989 ± 0.067
AATGAAAATG | 0.9804 ± 0.0089
AATGAAAGCG | 1.01 ± 0.015
AATGAGCGTT | 1.14 ± 0.16
AATGAGTACG | 1.02 ± 0.059
AATGATATCG | 1.03 ± 0.013
AATGATGGGT | 0.985 ± 0.019
AATGCACAGA | 1.05 ± 0.045
AATGCCTCTT | 1.013 ± 0.0028
AATGCCTGCG | 1.02 ± 0.034
AATGCGCCGT | 1.01 ± 0.022
AATGCGTGCG | 1.04 ± 0.023
AATGCTAAGA | 1.01 ± 0.044
AATGCTGCGC | 1.03 ± 0.056
AATGCTTCTC | 1.03
AATGGAGGGG | 0.978 ± 0.019
AATGGAGTTT | 1 ± 0.023
AATGGATACG | 1.05 ± 0.019
AATGGATGGG | 0.999 ± 0.011
AATGGATTTC | 1 ± 0.029
AATGGCATGG | 1.02 ± 0.016
AATGGCTGGT | 0.994 ± 0.017

Sequence | switch fluorescence ratio
AATGGGAAAT | 0.968 ± 0.059
AATGGGAGGG | 1 ± 0.032
AATGGGCAGT | 0.989 ± 0.029
AATGGGGAAA | 1 ± 0.028
AATGGGGAAG | 0.985 ± 0.018
AATGGGGGAT | 0.988 ± 0.029
AATGGGGGG | 0.986 ± 0.039
AATGGGTGAT | 0.9826 ± 0.0024
AATGGGTGCA | 1.03 ± 0.054
AATGGTATGG | 0.982 ± 0.024
AATGGTGTAC | 1.03 ± 0.011
AATGGTGTAG | 1.003 ± 0.0013
AATGGTTCGG | 0.962 ± 0.036
AATGGTTTAT | 0.9489 ± 0.0065
AATGGTTTGT | 0.999 ± 0.025
AATGTAAAAG | 0.988 ± 0.039
AATGTAAAGT | 1.001 ± 0.0047
AATGTAATCA | 0.997 ± 0.024
AATGTAATTA | 1.01 ± 0.011
AATGTATGGG | 0.99 ± 0.058
AATGTCAGCG | 0.999 ± 0.037
AATGTCTCTC | 0.998 ± 0.058

Sequence | switch fluorescence ratio
AATGTGAAAA | 0.976 ± 0.053
AATGTGCTAG | 0.995 ± 0.021
AATGTGCTGG | 0.993 ± 0.018
AATGTGGGAA | 1.01 ± 0.044
AATGTGGGTC | 0.9392 ± 0.006
AATGTGTACT | 1.03 ± 0.032
AATGTGTCA | 1.01 ± 0.011
AATGTTCGTT | 1.01 ± 0.014
AATGTTCTGG | 0.99 ± 0.032
AATGTTGCGT | 0.99 ± 0.028
AATGTTGTGG | 0.985 ± 0.031
AATGTTTATC | 1.027 ± 0.0084
AATGTTTATT | 0.954 ± 0.01
AATGTTTTAC | 0.97 ± 0.035
AATTAACGGG | 1.02 ± 0.019
AATTAATAAG | 1.011 ± 0.0076
AATTAATGCA | 1.01 ± 0.038
AATTACCGCG | 1.03 ± 0.023
AATTACGTGT | 1.0006 ± 0.00059
